Data from US11160866B2, “Biomaterials for delivery of blood extracts and methods of using same” (Mosaic Biosciences, Inc., priority 2012, dated 2021).

Tests used:
whole blood = test: PDGF release in ACD-anticoagulated whole blood treated with activators (Example 10); format: cell-based, human; settings: after 60 minutes
Protocol: Whole blood was collected from a healthy volunteer by a certified phlebotomist into a 8.5 mL ACD-containing Vacutainer. 375 ul of 0.167 mM PAR1-AP in ultrapure water or 200 ul of 0.1 unit/microliter of thrombin (Zymogenetics) were injected into the vacutainers via a sterile 1 mL syringe; samples were gently mixed by inverting 10 times and incubated at ambient temperature for specified time. The samples were then centrifugated at 2,380×g for 5 minutes at ambient temperatures and ˜3 mL clear supernatants were collected from the top of each sample and transferred into sterile 15 mL conical tubes. Concentration of PDGF-BB in each sample was determined by ELISA (Quantikine kit, R&D Systems) according to the manufacturer's protocol.

[1] = target: T1, Collagenase (Matrix metalloproteinase I) (Homo sapiens, UniProt P03956); settings: cited from earlier work
T1 sequence (P03956 100-469): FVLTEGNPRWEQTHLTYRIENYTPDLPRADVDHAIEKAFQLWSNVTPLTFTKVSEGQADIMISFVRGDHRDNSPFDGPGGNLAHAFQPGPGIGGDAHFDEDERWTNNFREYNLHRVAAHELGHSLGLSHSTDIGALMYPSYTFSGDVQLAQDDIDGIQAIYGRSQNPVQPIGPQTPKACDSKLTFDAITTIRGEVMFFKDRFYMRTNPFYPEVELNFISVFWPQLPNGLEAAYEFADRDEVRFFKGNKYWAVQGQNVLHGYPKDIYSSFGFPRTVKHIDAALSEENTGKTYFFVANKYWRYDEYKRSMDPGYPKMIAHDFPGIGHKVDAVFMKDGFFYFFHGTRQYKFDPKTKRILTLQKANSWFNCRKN

platelets = test: Selectively activated PRP and washed platelet releasates, PDGF-BB ELISA (Example 11); format: cell-based, human; settings: PRP and WP preparations, Patients A and B
Protocol: Fresh whole blood (WB) was collected into tubes containing appropriate levels of Anti-coagulant Citrate Dextrose (ACD) to prevent platelet activation and coagulation. WB samples were then split into 4 conical tubes, 50 ml WB+ACD per tube. Red Blood Cells (RBCs) were then removed by centrifuging the tubes at 3500 rpm for 10 minutes in a clinical centrifuge. Supernatants (approximately 25 ml) with some RBCs remaining were pooled into 2 conical tubes and centrifuged again at 3500 rpm for 10 minutes. Clear supernatants (plasma) were then transferred to new 50 ml conical, and Buffy Coat (BC) with some RBCs put into 15 ml conicals. […]
PRP and WPs were aliquotted into 1 ml volumes, and 4 tubes of PRP and 4 tubes of WPs were used for preparation of activated releasates: (1) no selective activation, in which no platelet activator was added (2) PAR1 activation, in which 20 ul of 500 uM PAR1 Activating Peptide (PAR1 AP) (SFLLRN, SEQ ID: 40) was added, (3) PAR4 activation, in which 20 ul of 500 uM PAR4 Activating Peptide (PAR4 AP) (AYPGKF, SEQ ID: 44) was added, and (4) ADP activation, to which 20 ul of 2.5 mM ADP (Adenosine-5′-diphosphate) was added. […] PDGF-BB levels were then measured by ELISA using a Human PDGF-BB Quantikine ELISA Kit (R&D Systems).

Row | Compound | kcat/Km relative to that of PQGIAG [1] | further results
1 | Nc1ncnc2c1ncn2[C@@H]1O[C@H](COP(=O)(O)OP(=O)(O)O)[C@@H](O)[C@H]1O [ADP, Adenosine-5′-diphosphate] | – | Signs of coagulation (whole blood): did not
2 | GPQGIAGQ | 100% | –
3 | GPQGIASQ | 130% | –
4 | GPQGIFGQ | >300% | –
5 | GPQGIWGQ | >700% | –
6 | GPQGRAGQ | <5% | –
7 | GPQGVAGQ | 9% | –
8 | GPVGIAGQ | 30% | –
9 | SFLLRN [PAR1-AP] | – | Release of PDGF-BB compared between activators (platelets): greatest release of PDGF-BB
10 | Thrombin | – | Signs of coagulation (whole blood): some signs of coagulation
